Experimental data published in patent US20190100597A1 (IGM BIOSCIENCES, published 2019).

T1: human CD20 on CD20-expressing cell lines (human, UniProt P11836 1-297)
T1 sequence: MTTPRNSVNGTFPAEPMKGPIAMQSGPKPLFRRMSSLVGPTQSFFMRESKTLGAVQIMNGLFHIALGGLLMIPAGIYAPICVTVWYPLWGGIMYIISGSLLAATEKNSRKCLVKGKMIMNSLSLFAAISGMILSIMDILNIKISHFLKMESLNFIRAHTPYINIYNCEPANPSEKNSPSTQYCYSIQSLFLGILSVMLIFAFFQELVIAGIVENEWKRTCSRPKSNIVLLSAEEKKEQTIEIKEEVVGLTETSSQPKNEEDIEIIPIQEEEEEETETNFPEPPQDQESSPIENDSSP


Tests used:
Assay in all cases: cell-based or functional assay
[1] = target: T1, human CD20 on CD20-expressing cell lines
[2] = target: T1, human CD20 on CD20-expressing cell lines; remark: listed apart in the source
[3] = target: T1, human CD20 on CD20-expressing cell lines; remark: listed apart in the source
[4] = target: T1, human CD20 on CD20-expressing cell lines; remark: listed apart in the source

| Binder | T-cell directed B-cell killing, LDH release, EC50 on DB cells [1] [µg/mL] | T-cell directed B-cell killing, LDH release, EC50 on DOHH2 cells [1] [µg/mL] | T-cell directed B-cell killing, LDH release, EC50 on Z-138 cells [1] [µg/mL] | T-cell directed B-cell killing, LDH release, EC50 on DB cells (molar) [2] [nM] | CDC (IC50) on Raji cells [3] [µg/mL] | KILR cytotoxicity assay, potency relative to the 1.5.3 IgM antibodies [2] [fold less potent] | CDC EC50 on DOHH-2 cells [4] [nM] | CDC EC50 on Z-138 cells [4] [nM] |
| --- | --- | --- | --- | --- | --- | --- | --- | --- |
| 1.5.3 IgM+V15J (bispecific anti-CD20 x anti-CD3 IgM pentamer) (bispecific antibody) heavy: EVQLVQSGAEVKKPGESLKISCKGSGYSFTSYWIGWVRQMPGKGLEWMGIIYPGDSDTRYSPSFQGQVTISADKSITTAYLQWSSLKASDTAMYYCARHPSYGSGSPNFDYWGQGTLVTVSSGSASAPTLFPLVSCENSPSDTSSVAVGCLAQDFLPDSITFSWKYKNNSDISSTRGFPSVLRGGKYAATSQVLLPSKDVMQGTDEHVVCKVQHPNGNKEKNVPLPVIAELPPKVSVFVPPRDGFFGNPRKSKLICQATGFSPRQIQVSWLREGKQVGSGVTTDQVQAEAKESGPTTYKVTSTLTIKESDWLSQSMFTCRVDHRGLTFQQNASSMCVPDQDTAIRVFAIPPSFASIFLTKSTKLTCLVTDLTTYDSVTISWTRQNGEAVKTHTNISESHPNATFSAVGEASICEDDWNSGERFTCTVTHTDLPSPLKQTISRPKGVALHRPDVYLLPPAREQLNLRESATITCLVTGFSPADVFVQWMQRGQPLSPEKYVTSAPMPEPQAPGRYFAHSILTVSEEEWNTGETYTCVVAHEALPNRVTERTVDKSTGKPTLYNVSLVMSDTAGTCY light: not shown not shown | 0.0004 | 0.012 | 0.033 | 0.0004 |  |  |  |  |
| Rituxan IgM+V15J (bispecific anti-CD20 x anti-CD3 IgM pentamer) (bispecific antibody) heavy: QVQLQQPGAELVKPGASVKMSCKASGYTFTSYNMHWVKQTPGRGLEWIGAIYPGNGDTSYNQKFKGKATLTADKSSSTAYMQLSSLTSEDSAVYYCARSTYYGGDWYFNVWGAGTTVTVSSGSASAPTLFPLVSCENSPSDTSSVAVGCLAQDFLPDSITFSWKYKNNSDISSTRGFPSVLRGGKYAATSQVLLPSKDVMQGTDEHVVCKVQHPNGNKEKNVPLPVIAELPPKVSVFVPPRDGFFGNPRKSKLICQATGFSPRQIQVSWLREGKQVGSGVTTDQVQAEAKESGPTTYKVTSTLTIKESDWLSQSMFTCRVDHRGLTFQQNASSMCVPDQDTAIRVFAIPPSFASIFLTKSTKLTCLVTDLTTYDSVTISWTRQNGEAVKTHTNISESHPNATFSAVGEASICEDDWNSGERFTCTVTHTDLPSPLKQTISRPKGVALHRPDVYLLPPAREQLNLRESATITCLVTGFSPADVFVQWMQRGQPLSPEKYVTSAPMPEPQAPGRYFAHSILTVSEEEWNTGETYTCVVAHEALPNRVTERTVDKSTGKPTLYNVSLVMSDTAGTCY light: QIVLSQSPAILSASPGEKVTMTCRASSSVSYIHWFQQKPGSSPKPWIYATSNLASGVPVRFSGSGSGTSYSLTISRVEAEDAATYYCQQWTSNPPTFGGGTKLEIKRTVAAPSVFIFPPSDEQLKSGTASVVCLLNNFYPREAKVQWKVDNALQSGNSQESVTEQDSKDSTYSLSSTLTLSKADYEKHKVYACEVTHQGLSSPVTKSFNRGEC not shown | 0.0005 | 0.013 | 0.03 |  |  |  |  |  |
| rituximab (IgG1) (antibody, V domains shown) VH: QVQLQQPGAELVKPGASVKMSCKASGYTFTSYNMHWVKQTPGRGLEWIGAIYPGNGDTSYNQKFKGKATLTADKSSSTAYMQLSSLTSEDSAVYYCARSTYYGGDWYFNVWGAGTTVTVSA VL: QIVLSQSPAILSASPGEKVTMTCRASSSVSYIHWFQQKPGSSPKPWIYATSNLASGVPVRFSGSGSGTSYSLTISRVEAEDAATYYCQQWTSNPPTFGGGTKLEIKR |  |  |  |  | > 50 | ≥ 30 | 22 | > 100 |
| 1.5.3 IgG (IgG1) (antibody, V domains shown) VH: EVQLVQSGAEVKKPGESLKISCKGSGYSFTSYWIGWVRQMPGKGLEWMGIIYPGDSDTRYSPSFQGQVTISADKSITTAYLQWSSLKASDTAMYYCARHPSYGSGSPNFDYWGQGTLVTVSS VL: not shown |  |  |  |  |  |  | 4.6 | > 100 |
